Fold amount pulled down relative to Sas-4-N data for four molecules are collected here from PMC3411905.

For the test, the target named is Sas-4-NΔT GST (Drosophila) (UniProt Q9VI72). Put plainly: pull-down.

“γ-tubulin (from UniProt P23257 1-475) (natural protein)” yielded a fold amount pulled down relative to Sas-4-N of 3 times. The value for “Asl (from UniProt Q9VNE4 1-994) (natural protein)” was 3 times. In the case of Grip128 (natural protein), the fold amount pulled down relative to Sas-4-N is 3 times.

B1: Cnn (natural protein)
chain: MNSNRTSSSHNSRNLKILNASFDVPRPPGGGNSPLPSQGRSVRELEEQMSALRKENFNLKLRIYFLEEGQPGARADSSTESLSKQLIDAKIEIATLRKTVDVKMELLKDAARAISHHEELQRKADIDSQAIIDELQEQIHAYQMAESGGQPVENIAKTRKMLRLESEVQRLEEELVNIEARNVAARNELEFMLAERLESLTACEGKIQELAIKNSELVERLEKETASAESSNEAIDSLKVELEACRKENQDLVTSIRTLKHDMKRQVRSMKEAANTMDVQRQSILLLEATIKRKEKSCGSMQKNVLNYEALIAKLNAELETMRQQNVYFRELSENLQQKEVRQLDRGVAIVQPMRMTADAGRFVWQSGTIVAQEPLPLERQSAAATSNVSVSAVRLSSGPPPDQTYPVNGHDRAKYGLLQLFAAKLDWISAVPLALGHLALKIILLAMRLHSCLQNVHIPLRANRDLGAQLADKICELQEAQEKLKERERIHEQACRTIQKLMQKLSSQEKEIKKLNQENEQSANKENDCAKTVISPSSSGRSMSDNEASSQEMSTNLRVRYELKINEQEEKIKQLQTEVKKKTANLQNLVNKELWEKNREVERLTKLLANQQKTLPQISEESAGEADLQQSFTEAEYMRALERNKLLQRKVDVLFQRLADDQQNSAVIGQLRLELQQARTEVETADKWRLECVDVCSVLTNRLEELAGFLNSLLKHKDVLGVLAADRRNAMRKAVDRSLDLSKSLNMTLNITATSLADQSLAQLCNLSEILYTEGDASHKTFNSHEELHAATSMAPTVENLKAENKALKKELEKRRSSEGQRKERRSLPLPSQQFDNQSESEAWSEPDRKVSLARIGLDETSNSLAAPEQAISESESEGRTCATRQDRNRNSERIAQLEEQIAQKDERMLNVQCQMVELDNRYKQEQLRCLDITQQLEQLRAINEALTADLHAIGSHEEERMVELQRQLELKNQQIDQLKLAHSTLTADSQITEMELQALQQQMQEIEQLHADSVETLQSQLQKLKLDAVQQLEEHERLHREALERDWVALTTYQEQAQQLLELQRSLDYHQENEKELKQTLVENELATRALKKQLDESTLQASKAVMERTKAYNDKLQLEKRSEELRLQLEALKEEHQKLLQKRSNSSDVSQSGYTSEEVAVPMGPPSGQATTCKQAAAAVLGQRVNTSSPDLGIESDAGRISSVEVSNAQRAMLKTVEMKTEGSASPKAKSEESTSPDSKSNVATGAATVHDCAKVDLENAELRRKLIRTKRAFEDTYEKLRMANKAKAQVEKDIKNQILKTHNVLRNVRSNMENEL
On to B1, for which the fold amount pulled down relative to Sas-4-N amounted to 3 times.
